These results are taken from paper PMC3162888.

Substrate in the data set: N=C(N)NCCCC(NC(=O)c1ccccc1)C(=O)Nc1ccc([N+](=O)[O-])cc1
Description: purified protein. To be noted: 20 mM TRIS-HCl, 10 mM CaCl2, pH 8.0, 24°C.

B1: AaET (Aedes aegypti) (protein)
chain: IVGGFQIDIAEVPHQVSLQRSGRHFCGGSIISPRWVLTAAHCTTNTDPAAYTIRAGSTDRTNGGIIVKVKSVIPHPQYNGDTYNYDFSLLELDESIGFSRSIEAIALPEASETVADGAMCTVSGWGDTKNVFEMNTLLRAVNVPSYNQAECAAALVNVVPVTEQMICAGYAAGGKDSCQGDSGGPLVSGDKLVGVVSWGKGCALPNLPGVYARVSTVRQWIREVSEV
For the protein B1, where the note is “20 nM enzyme”, the Km stood at 63.0 ± 1.3 µM, the catalytic constant (kcat) was determined as 2.03 s⁻¹ and the kcat/Km is 32300 M⁻¹ s⁻¹.

B2: AaSPVII (Aedes aegypti) (protein)
chain: VVGGYEVDVKDIPFQVSLQNTYGHFCGGSIISERWVLTAGHCASPRDHGLKVRVGSSQHASGGQLYKVAKIHQHPQYNPSTIDYDFCLLELEKAITFSEVSQSVDLPKLNDPVQDGTLLQVSGWGYTQNPSESRDVLRATNVPAVSQKECSRAYQGTNAVTDRMVCAGYKEGGKDSCQGDSGGPLVEGNTLVGVVSWGVGCAQAGYPGVYSRVAAVRDWVAEVSGV
On to B2, for which, for the setting “50 nM enzyme”, the Michaelis constant (Km) is 19.2 ± 1.0 µM, the kcat is 0.35 s⁻¹ and the kcat/Km is 18500 M⁻¹ s⁻¹.
